Non-standard residues stand in square brackets, D forms with d. No end group written: not given here.
Target: T1, lecithin:cholesterol acyltransferase (LCAT), purified from human plasma (human, UniProt P04180 25-440)
T1 sequence (looked up): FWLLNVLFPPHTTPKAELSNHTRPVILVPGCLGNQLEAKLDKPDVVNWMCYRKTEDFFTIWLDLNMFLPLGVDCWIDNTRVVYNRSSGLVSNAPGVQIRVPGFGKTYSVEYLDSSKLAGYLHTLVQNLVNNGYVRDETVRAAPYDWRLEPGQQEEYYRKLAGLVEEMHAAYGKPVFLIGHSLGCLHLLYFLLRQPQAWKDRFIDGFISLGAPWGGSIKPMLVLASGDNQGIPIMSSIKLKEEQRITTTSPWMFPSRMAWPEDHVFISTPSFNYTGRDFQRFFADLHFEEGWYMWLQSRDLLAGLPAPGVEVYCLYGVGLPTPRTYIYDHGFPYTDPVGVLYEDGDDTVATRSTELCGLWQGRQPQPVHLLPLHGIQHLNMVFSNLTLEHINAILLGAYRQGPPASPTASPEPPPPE
Assay: cell-based or functional assay

ACTIVITY (%) LCAT: 22%
Binder: [dP][dV]LDLFRELLNELLEALKQKLK [peptide 48]
